The supplement of paper PMC10065799, “High-throughput profiling of sequence recognition by tyrosine kinases and SH2 domains using bacterial peptide display” (eLife, 2023)

Tests used:
Grb2 SH2 = Grb2 SH2 (UniProt P62993); experiment: SH2 binding enrichment of the phosphorylated peptide, bacterial display (enrichment ratio); higher = better substrate or ligand; peptides without Tyr show the background
SHP2-C SH2 = experiment: as above
c-Src SH2 = experiment: as above
FGFR3 = FGFR3 (UniProt P22607); experiment: phosphorylation enrichment, bacterial display (enrichment ratio); higher = better substrate or ligand; peptides without Tyr show the background
MERTK = MERTK (UniProt Q12866); experiment: as above
FGFR1 = FGFR1 (UniProt P11362); experiment: as above
AncSZ = experiment: as above
Hck = Hck (UniProt P08631); experiment: as above
c-Src = experiment: as above
Fer (mouse) = experiment: as above
Jak2 = Jak2 (UniProt O60674); experiment: as above
EPHB1 = EPHB1 (UniProt P54762); experiment: as above
Fyn = Fyn (UniProt P06241); experiment: as above
EPHB2 = EPHB2 (UniProt P29323); experiment: as above
c-Abl (mouse) = experiment: as above
Fes = Fes (UniProt P07332); experiment: as above
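Wherever SH2 binding enrichment of the phosphorylated peptide, bacterial display is given: peptide library displayed on the E. coli surface as eCPX fusions, selected cells deep-sequenced, score is each peptide's frequency after selection divided by its frequency in the input.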
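Wherever phosphorylation enrichment, bacterial display is given: 11-residue human phosphosite peptides and single-mutation variants displayed on the E. coli surface, counted by deep sequencing, each peptide's frequency after selection divided by its frequency in the unselected input library; frequency after pTyr selection over input frequency; kinase dosed for 20-30% of maximal phosphorylation in three min.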

Sequence of MERTK (Q12866 whole entry, looked up): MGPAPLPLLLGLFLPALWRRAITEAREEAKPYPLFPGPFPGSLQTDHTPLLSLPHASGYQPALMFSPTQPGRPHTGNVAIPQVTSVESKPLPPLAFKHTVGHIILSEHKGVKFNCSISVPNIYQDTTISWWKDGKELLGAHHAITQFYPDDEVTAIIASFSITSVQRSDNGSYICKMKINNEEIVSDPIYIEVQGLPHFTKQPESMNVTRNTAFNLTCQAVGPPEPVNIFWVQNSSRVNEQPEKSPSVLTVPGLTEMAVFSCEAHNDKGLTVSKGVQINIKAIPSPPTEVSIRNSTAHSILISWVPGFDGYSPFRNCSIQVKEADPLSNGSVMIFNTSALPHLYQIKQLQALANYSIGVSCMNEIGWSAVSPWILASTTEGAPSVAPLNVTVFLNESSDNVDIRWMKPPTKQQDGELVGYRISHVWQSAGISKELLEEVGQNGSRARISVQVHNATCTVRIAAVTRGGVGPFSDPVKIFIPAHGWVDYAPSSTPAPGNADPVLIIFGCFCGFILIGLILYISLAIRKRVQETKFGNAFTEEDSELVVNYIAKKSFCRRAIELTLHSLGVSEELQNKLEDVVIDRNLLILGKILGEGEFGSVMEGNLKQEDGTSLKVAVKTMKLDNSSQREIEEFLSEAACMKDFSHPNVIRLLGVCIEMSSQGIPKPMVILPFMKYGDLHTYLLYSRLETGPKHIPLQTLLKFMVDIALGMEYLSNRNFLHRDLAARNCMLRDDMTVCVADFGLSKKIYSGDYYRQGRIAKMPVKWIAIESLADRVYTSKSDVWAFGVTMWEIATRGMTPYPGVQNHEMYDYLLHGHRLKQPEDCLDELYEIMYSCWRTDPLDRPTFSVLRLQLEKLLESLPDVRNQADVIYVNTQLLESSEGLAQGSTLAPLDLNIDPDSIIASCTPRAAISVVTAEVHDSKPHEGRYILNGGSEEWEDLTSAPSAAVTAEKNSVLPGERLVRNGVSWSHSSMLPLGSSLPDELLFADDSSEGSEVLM
Sequence of EPHB2 (P29323 whole entry, looked up): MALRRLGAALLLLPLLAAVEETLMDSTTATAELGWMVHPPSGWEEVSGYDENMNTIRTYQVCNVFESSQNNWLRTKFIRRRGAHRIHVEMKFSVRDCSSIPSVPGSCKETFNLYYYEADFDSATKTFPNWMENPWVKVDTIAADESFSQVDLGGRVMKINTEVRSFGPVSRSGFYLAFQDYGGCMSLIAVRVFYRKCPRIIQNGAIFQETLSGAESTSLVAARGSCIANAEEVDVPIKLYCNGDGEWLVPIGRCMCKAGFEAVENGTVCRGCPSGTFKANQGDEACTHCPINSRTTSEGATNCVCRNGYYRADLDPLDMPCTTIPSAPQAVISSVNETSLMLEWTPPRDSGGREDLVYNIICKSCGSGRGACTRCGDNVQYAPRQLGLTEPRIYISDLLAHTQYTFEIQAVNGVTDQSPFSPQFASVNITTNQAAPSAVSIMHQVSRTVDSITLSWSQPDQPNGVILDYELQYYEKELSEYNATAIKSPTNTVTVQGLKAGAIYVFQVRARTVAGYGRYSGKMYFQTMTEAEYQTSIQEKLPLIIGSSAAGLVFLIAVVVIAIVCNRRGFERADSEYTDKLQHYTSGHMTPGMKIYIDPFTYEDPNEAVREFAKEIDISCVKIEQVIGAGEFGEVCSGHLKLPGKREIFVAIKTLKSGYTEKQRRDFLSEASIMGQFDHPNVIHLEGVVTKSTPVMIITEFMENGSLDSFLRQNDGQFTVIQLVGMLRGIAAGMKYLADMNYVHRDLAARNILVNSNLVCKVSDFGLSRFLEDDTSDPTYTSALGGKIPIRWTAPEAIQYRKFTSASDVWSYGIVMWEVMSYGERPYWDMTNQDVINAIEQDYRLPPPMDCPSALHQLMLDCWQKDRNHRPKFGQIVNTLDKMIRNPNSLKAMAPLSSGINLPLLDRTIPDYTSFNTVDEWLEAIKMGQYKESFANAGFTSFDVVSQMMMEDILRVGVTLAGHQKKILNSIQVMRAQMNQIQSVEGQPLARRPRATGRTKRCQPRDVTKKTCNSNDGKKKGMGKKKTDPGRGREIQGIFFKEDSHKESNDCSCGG
Sequence of EPHB1 (P54762 whole entry, looked up): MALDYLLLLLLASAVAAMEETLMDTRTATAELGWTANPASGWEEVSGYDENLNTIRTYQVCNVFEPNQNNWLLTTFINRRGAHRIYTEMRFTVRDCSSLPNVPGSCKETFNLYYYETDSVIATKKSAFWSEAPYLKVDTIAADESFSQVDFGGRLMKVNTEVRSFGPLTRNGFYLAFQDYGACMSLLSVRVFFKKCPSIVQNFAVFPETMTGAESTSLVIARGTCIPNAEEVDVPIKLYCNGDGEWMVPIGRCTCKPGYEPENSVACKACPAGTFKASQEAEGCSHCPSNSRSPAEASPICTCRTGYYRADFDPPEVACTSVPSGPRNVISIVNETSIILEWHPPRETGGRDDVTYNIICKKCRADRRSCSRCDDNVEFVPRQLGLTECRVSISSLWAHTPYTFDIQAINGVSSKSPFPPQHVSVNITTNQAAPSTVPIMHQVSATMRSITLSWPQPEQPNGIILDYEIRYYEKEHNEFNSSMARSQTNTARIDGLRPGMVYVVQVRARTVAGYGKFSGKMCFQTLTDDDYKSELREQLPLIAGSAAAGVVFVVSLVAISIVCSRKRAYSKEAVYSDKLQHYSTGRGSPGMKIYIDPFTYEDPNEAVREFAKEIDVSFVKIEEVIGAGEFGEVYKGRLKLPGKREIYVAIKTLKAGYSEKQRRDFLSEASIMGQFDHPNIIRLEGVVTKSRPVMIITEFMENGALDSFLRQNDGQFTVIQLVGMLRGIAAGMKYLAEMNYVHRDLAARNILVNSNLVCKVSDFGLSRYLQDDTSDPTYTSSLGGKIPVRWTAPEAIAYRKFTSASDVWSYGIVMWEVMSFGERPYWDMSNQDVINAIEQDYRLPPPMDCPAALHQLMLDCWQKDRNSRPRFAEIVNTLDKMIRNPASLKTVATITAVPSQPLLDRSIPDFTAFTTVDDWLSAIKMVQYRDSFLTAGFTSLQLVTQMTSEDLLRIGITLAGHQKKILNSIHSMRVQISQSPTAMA
Sequence of FGFR1 (P11362 whole entry, looked up): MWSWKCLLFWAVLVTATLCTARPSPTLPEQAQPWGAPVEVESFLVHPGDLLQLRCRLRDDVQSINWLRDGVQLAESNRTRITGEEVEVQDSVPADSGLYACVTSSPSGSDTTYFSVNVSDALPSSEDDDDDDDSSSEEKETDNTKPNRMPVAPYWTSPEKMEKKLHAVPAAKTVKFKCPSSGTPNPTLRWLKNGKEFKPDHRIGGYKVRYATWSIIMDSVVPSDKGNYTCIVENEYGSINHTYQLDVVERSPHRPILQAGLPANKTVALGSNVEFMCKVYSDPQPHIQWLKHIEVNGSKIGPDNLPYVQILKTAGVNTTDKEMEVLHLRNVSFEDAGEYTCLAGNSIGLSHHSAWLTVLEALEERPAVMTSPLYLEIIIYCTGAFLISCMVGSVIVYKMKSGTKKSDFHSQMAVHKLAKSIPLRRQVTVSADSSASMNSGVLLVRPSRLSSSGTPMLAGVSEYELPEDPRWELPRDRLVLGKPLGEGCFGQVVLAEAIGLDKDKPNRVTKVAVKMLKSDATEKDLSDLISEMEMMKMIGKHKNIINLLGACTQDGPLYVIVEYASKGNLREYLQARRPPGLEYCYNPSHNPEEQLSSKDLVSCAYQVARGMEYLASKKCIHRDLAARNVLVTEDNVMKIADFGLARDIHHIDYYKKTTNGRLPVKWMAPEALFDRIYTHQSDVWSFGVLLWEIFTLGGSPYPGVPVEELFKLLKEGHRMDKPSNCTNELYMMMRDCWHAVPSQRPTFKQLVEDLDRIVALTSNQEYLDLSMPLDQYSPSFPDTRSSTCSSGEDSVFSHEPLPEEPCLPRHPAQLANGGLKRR
Sequence of Hck (P08631 whole entry, looked up): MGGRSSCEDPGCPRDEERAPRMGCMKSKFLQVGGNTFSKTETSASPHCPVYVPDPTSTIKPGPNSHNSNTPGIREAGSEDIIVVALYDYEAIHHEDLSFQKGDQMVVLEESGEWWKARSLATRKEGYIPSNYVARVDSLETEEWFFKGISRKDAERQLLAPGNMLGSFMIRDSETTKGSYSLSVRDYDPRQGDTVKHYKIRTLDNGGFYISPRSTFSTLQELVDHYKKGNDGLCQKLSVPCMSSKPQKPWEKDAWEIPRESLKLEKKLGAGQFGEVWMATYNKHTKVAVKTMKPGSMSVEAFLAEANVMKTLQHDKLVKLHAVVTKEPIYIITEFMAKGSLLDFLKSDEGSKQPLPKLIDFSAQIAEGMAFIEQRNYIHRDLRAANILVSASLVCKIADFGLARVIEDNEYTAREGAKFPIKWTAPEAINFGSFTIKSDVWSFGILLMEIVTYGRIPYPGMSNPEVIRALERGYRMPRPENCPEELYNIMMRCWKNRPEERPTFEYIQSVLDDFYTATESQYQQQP
Sequence of Fyn (P06241 whole entry, looked up): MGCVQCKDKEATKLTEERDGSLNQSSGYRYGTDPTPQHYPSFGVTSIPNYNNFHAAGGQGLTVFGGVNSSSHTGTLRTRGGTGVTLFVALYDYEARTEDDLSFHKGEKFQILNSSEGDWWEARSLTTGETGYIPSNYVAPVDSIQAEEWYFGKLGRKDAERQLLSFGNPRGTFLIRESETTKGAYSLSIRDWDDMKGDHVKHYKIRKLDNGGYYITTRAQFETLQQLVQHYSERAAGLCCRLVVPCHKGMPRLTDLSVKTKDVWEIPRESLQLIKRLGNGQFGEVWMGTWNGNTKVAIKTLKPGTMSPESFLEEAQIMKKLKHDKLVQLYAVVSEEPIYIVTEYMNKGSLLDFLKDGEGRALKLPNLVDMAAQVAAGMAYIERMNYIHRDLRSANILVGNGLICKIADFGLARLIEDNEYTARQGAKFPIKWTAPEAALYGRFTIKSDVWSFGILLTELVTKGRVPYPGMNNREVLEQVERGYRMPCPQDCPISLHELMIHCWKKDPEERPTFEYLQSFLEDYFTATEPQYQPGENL

| SH2 binding enrichment (Grb2 SH2) | SH2 binding enrichment (SHP2-C SH2) | SH2 binding enrichment (c-Src SH2) | Sequence | phosphorylation enrichment (FGFR3) | phosphorylation enrichment (MERTK) | phosphorylation enrichment (FGFR1) | phosphorylation enrichment (AncSZ) | phosphorylation enrichment (Hck) | phosphorylation enrichment (c-Src) | phosphorylation enrichment (Fer (mouse)) | phosphorylation enrichment (Jak2) | phosphorylation enrichment (EPHB1) | phosphorylation enrichment (Fyn) | phosphorylation enrichment (EPHB2) | phosphorylation enrichment (c-Abl (mouse)) | phosphorylation enrichment (Fes) |
| --- | --- | --- | --- | --- | --- | --- | --- | --- | --- | --- | --- | --- | --- | --- | --- | --- |
| 0.75 | 0.672 | 0.384 | SNYRAYATEPQ [TNNI3_Y29_H34Q] | 0.475 | 0.428 | 0.389 | 0.699 | 0.497 | 0.44 | 0.444 | 0.597 | 0.461 | 0.419 | 0.467 | 0.464 | 0.72 |
| 0.999 | 1.03 | 2.08 | SSFSGYIMMPN [LEF1_Y114_YF] | 1.39 | 0.562 | 1.53 | 1.02 | 0.421 | 0.4 | 0.401 | 3.33 | 0.433 | 0.534 | 1.47 | 0.603 | 0.934 |
| 0.798 | 0.63 | 0.891 | STKELYEKYMI | 0.591 | 0.412 | 0.484 | 0.805 | 0.72 | 0.821 | 5.61 | 0.69 | 0.504 | 0.602 | 0.594 | 0.518 | 0.825 |
| 0.881 | 0.627 | 0.462 | SVMAEYGLFAA [VSX2_Y219_G223A_YF] | 0.564 | 0.396 | 0.505 | 0.822 | 2.76 | 4.95 | 0.664 | 0.734 | 0.484 | 5.82 | 0.578 | 0.675 | 0.845 |
| 0.664 | 0.646 | 0.463 | SVTCTYSPAFN [TP53_Y126_L130F] | 0.897 | 0.418 | 0.49 | 1.35 | 0.592 | 0.66 | 0.553 | 1.31 | 0.8 | 0.518 | 0.59 | 1 | 1.51 |
| 0.644 | 0.605 | 0.367 | SVTCTYSPAHN [TP53_Y126_L130H] | 0.865 | 0.663 | 0.502 | 1.37 | 0.517 | 0.802 | 0.799 | 2.08 | 0.773 | 0.497 | 0.705 | 1.17 | 1.59 |
| 0.78 | 0.683 | 0.538 | SVTCTYSPVLN [TP53_Y126_A129V] | 0.831 | 0.435 | 0.558 | 1.37 | 0.876 | 0.815 | 1.02 | 1.21 | 0.795 | 0.613 | 0.692 | 0.804 | 1.6 |
| 0.62 | 0.596 | 0.46 | SVTCTYSRALN [TP53_Y126_P128R] | 0.796 | 0.401 | 0.461 | 1.09 | 0.523 | 0.494 | 0.5 | 1.07 | 0.626 | 0.429 | 0.602 | 0.916 | 1.28 |
| 0.854 | 0.867 | 0.844 | SVVVPYEPPEI [TP53_Y220_V225I] | 0.665 | 0.37 | 0.44 | 1.15 | 0.616 | 0.447 | 0.4 | 0.967 | 0.552 | 0.408 | 0.62 | 0.8 | 1.25 |
| 0.806 | 0.512 | 0.64 | SVVVPYEPPKV [TP53_Y220_E224K] | 0.612 | 0.366 | 0.41 | 0.827 | 0.465 | 0.465 | 0.45 | 0.822 | 0.474 | 0.387 | 0.59 | 0.895 | 0.837 |
| 0.633 | 0.963 | 0.476 | TEDELYQLFLQ [RASGRP2_Y378_S381F] | 1.9 | 2.01 | 1.37 | 3.06 | 3.67 | 4.23 | 8.85 | 1.3 | 1.05 | 4.54 | 0.825 | 1.13 | 1.56 |
| 0.783 | 1.04 | 0.962 | TENAGYYFQVS | 1.76 | 1.29 | 2 | 1.39 | 0.563 | 0.509 | 0.604 | 1.99 | 0.78 | 0.456 | 0.713 | 0.983 | 1.52 |
| 0.969 | 0.863 | 0.5 | TEQDPSNNIVR [MMUT_Y364_Y364S] | 0.557 | 0.464 | 0.55 | 0.824 | 0.408 | 0.492 | 0.408 | 0.771 | 0.468 | 0.492 | 0.46 | 0.768 | 1 |
| 0.762 | 0.889 | 0.466 | TGDFGYRTPGY [TNS2_Y668_A670T] | 0.465 | 0.481 | 0.404 | 0.524 | 0.394 | 0.432 | 0.342 | 0.484 | 0.4 | 0.479 | 0.423 | 0.459 | 0.651 |
| 0.626 | 0.491 | 0.377 | TGEDWYVLVRV [SF3B3_Y904_G908R] | 0.827 | 0.364 | 0.405 | 1.37 | 0.561 | 0.385 | 0.524 | 1.21 | 0.893 | 0.433 | 0.64 | 0.954 | 1.42 |
| 0.889 | 0.728 | 0.456 | TGEKLYQRKEF [ZNF283_Y627] | 0.489 | 0.477 | 0.539 | 0.813 | 0.543 | 0.447 | 0.437 | 0.59 | 0.62 | 0.526 | 0.379 | 0.507 | 0.847 |
| 0.677 | 0.82 | 0.56 | TGFRPYVCPFD [YY1_Y383_D380Y_YF] | 1.66 | 0.849 | 1.1 | 1.54 | 0.691 | 0.458 | 0.892 | 1.12 | 2.1 | 0.4 | 0.978 | 1.29 | 0.975 |
| 0.705 | 0.62 | 0.363 | TGNGFYFRVFS [MYBPC3_Y1136_I1131T_YF] | 0.763 | 0.36 | 0.433 | 1.1 | 0.456 | 0.374 | 0.543 | 1.32 | 0.65 | 0.393 | 0.517 | 0.929 | 1.33 |

The next lines start with the sequence.

| Sequence | SH2 binding enrichment (Grb2 SH2) | SH2 binding enrichment (SHP2-C SH2) | SH2 binding enrichment (c-Src SH2) | phosphorylation enrichment (FGFR3) | phosphorylation enrichment (MERTK) | phosphorylation enrichment (FGFR1) | phosphorylation enrichment (AncSZ) | phosphorylation enrichment (Hck) | phosphorylation enrichment (c-Src) | phosphorylation enrichment (Fer (mouse)) | phosphorylation enrichment (Jak2) | phosphorylation enrichment (EPHB1) | phosphorylation enrichment (Fyn) | phosphorylation enrichment (EPHB2) | phosphorylation enrichment (c-Abl (mouse)) | phosphorylation enrichment (Fes) |
| --- | --- | --- | --- | --- | --- | --- | --- | --- | --- | --- | --- | --- | --- | --- | --- | --- |
| SLNEGYAKDFD [FBP1_Y216_R218K] | 0.788 | 0.84 | 0.598 | 0.716 | 0.437 | 0.566 | 1.02 | 0.525 | 0.371 | 0.511 | 0.71 | 0.508 | 0.534 | 0.6 | 0.589 | 0.937 |
| SLQFEYVHYGG [CDC14A_Y591_S589F] | 0.686 | 0.523 | 0.609 | 0.742 | 0.348 | 0.797 | 1.06 | 0.551 | 0.465 | 0.481 | 0.766 | 0.556 | 0.516 | 0.628 | 0.405 | 0.904 |
| SMAKFYASEIA [ACADSB_Y373_YF] | 0.788 | 0.674 | 0.393 | 0.604 | 0.437 | 0.513 | 0.686 | 0.518 | 0.464 | 0.61 | 0.619 | 0.403 | 0.434 | 0.472 | 0.588 | 0.803 |
| SRGRQYQELPR [KCNH2_Y1009] | 0.925 | 0.565 | 1.29 | 0.423 | 0.36 | 0.4 | 0.512 | 0.527 | 0.441 | 0.349 | 0.455 | 0.316 | 0.317 | 0.347 | 0.463 | 0.462 |
| SRIWVYNHFRC [BRCA2_Y2621_W2626C_YF] | 0.869 | 0.589 | 0.558 | 0.937 | 0.466 | 0.575 | 1.16 | 0.543 | 0.483 | 0.653 | 1.19 | 0.638 | 0.547 | 0.672 | 0.976 | 1.43 |
| SSSPTYLDLPF [GLI3_Y168_P169L] | 0.786 | 0.57 | 0.464 | 3.79 | 1.12 | 5.82 | 0.659 | 2.25 | 0.647 | 0.621 | 0.592 | 8.94 | 0.638 | 2.73 | 0.681 | 0.667 |
| SVKVYYKKCWS [EPHA7_Y202] | 0.716 | 0.521 | 0.393 | 0.733 | 0.379 | 0.414 | 0.951 | 0.424 | 0.432 | 0.483 | 1.21 | 0.549 | 0.352 | 0.432 | 1.2 | 1.25 |
| SVSVNYGDLVQ [GRAP_Y101_Q104L] | 0.824 | 0.695 | 0.479 | 0.633 | 0.42 | 0.565 | 0.745 | 0.476 | 0.419 | 0.54 | 0.728 | 0.516 | 0.506 | 0.557 | 0.61 | 0.855 |
| TAALWYIYLHT [ENG_Y612_S615L] | 0.989 | 0.52 | 0.514 | 1.1 | 0.516 | 0.81 | 1.41 | 0.579 | 0.566 | 0.769 | 1.55 | 0.796 | 0.587 | 0.639 | 1.18 | 1.66 |
| TDLAYYLVRKG [ASL_Y376] | 0.95 | 1.41 | 0.795 | 2.42 | 0.684 | 3.17 | 0.963 | 0.716 | 0.783 | 0.48 | 2.05 | 0.468 | 0.539 | 0.629 | 0.672 | 0.962 |
| TFFQMYDKGLV [IARS2_Y231_YF] | 0.99 | 0.7 | 0.526 | 0.623 | 0.542 | 0.52 | 0.862 | 1.06 | 0.537 | 0.57 | 1.03 | 0.531 | 0.566 | 0.569 | 0.734 | 1.14 |
| TFINKYQGKLF [HGD_Y249_V245F] | 0.726 | 0.78 | 0.629 | 0.457 | 0.631 | 0.387 | 0.566 | 0.368 | 0.347 | 0.358 | 0.457 | 0.391 | 0.414 | 0.346 | 0.52 | 0.589 |
| TFMKKYPKVFL [CNBD1_Y70_Q69K] | 1.12 | 1.52 | 1.17 | 0.419 | 0.404 | 0.485 | 3.41 | 0.366 | 0.447 | 0.393 | 0.642 | 0.508 | 0.357 | 0.419 | 0.548 | 0.662 |
| TFRPPYYHRDC [HGD_Y333_N337D] | 1.04 | 1.2 | 1.05 | 1.12 | 0.499 | 0.874 | 1.17 | 0.822 | 0.583 | 0.756 | 0.82 | 0.834 | 0.658 | 0.734 | 0.639 | 1.28 |
| TLNHQYDFTFH [CSNK1A1_Y292_D297H_YF] | 1.01 | 0.717 | 4.74 | 0.785 | 0.557 | 0.557 | 1.02 | 0.559 | 0.58 | 0.685 | 0.738 | 0.759 | 0.588 | 0.624 | 0.735 | 1.17 |
